These results are taken from PMC4335501.

This test addresses HAdV-52 short fiber knob (human adenovirus type 52 (HAdV-52)). In words: SPR; 52SFK captured by its His-tag on a Ni-NTA chip (700 RU); fetuin or asialofetuin type II as analytes, two-fold series 125 to 1 μM; 25°C; HBS-EP+; Biacore T100.

B1: sialylated fetuin glycoprotein (natural protein)
chain: IPLDPVAGYKEPACDDPDTEQAALAAVDYINKHLPRGYKHTLNQIDSVKVWPRRPTGEVYDIEIDTLETTCHVLDPTPLANCSVRQQTQHAVEGDCDIHVLKQDGQFSVLFTKCDSSPDSAEDVRKLCPDCPLLAPLNDSRVVHAVEVALATFNAESNGSYLQLVEISRAQFVPLPVSVSVEFAVAATDCIAKEVVDPTKCNLLAEKQYGFCKGSVIQKALGGEDVRVTCTLFQTQPVIPQPQPDGAEAEAPSAVPDAAGPTPSAAGPPVASVVVGPSVVAVPLPLHRAHYDLRHTFSGVASVESSSGEAFHVGKTPIVGQPSIPGGPVRLCPGRIRYFKI
modifications: sialylated glycans
A word on the Kd: it is a measure of binding affinity in units of concentration. Higher therefore signals lower affinity. B1 gave a Kd of 37 µM.
